One assay addresses T1, NINJA (Arabidopsis thaliana, UniProt Q9SV55).
T1 construct: expressed in transfected cells; host or cells: yeast strain MaV203
T1 sequence (Q9SV55 with tags, fused parts or gaps): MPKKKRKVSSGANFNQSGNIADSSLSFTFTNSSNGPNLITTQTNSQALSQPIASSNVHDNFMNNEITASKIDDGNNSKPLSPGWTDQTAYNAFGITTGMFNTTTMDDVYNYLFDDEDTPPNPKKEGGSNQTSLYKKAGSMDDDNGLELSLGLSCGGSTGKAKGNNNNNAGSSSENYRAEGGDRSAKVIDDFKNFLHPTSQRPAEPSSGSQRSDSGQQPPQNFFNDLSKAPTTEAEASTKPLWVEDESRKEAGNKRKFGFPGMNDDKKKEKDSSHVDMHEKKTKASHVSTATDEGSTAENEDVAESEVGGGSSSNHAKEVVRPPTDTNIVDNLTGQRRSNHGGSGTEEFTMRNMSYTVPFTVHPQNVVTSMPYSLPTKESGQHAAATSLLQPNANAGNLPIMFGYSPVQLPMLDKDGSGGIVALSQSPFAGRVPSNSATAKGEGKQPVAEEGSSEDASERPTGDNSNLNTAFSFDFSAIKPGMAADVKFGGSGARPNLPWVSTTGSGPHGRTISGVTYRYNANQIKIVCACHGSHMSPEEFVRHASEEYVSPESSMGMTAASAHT
Put plainly: Yeast two hybrid (Y2H) interaction with NINJA. Type of assay: binding. As to conditions: Y2H screening, PPD1 as bait. An excerpt: (§1) The constructs for Y2H and BiFC assays were generated as follows. Arabidopsis DNA sequences encoding the open reading frames for; At4g14713 (PPD1) and truncation and deletion derivatives of PPD1: PPD1; PPD1Δppd (N-terminal truncation of sequences encoding aa 1-61), PPD1Δtify, (internal deletion of sequences encoding aa 154-186), PPD1Δjas*(C-terminal truncation of sequences encoding aa 229-313) (FIG. 5), At4g28910 (NINJA), At1g15750 (TPL), At1g75080 (BZR1), a synthetic PUAS-35S promoter, and sequences encoding GAL4DBD and c-myc fusion proteins were synthesised and sequence verified by GeneArt. Most sequences were supplied as clones in pENTR221 ready for Gateway cloning into yeast and plant expression vectors. The exception, a promoter sequence for in planta transcription activation assays, incorporating 5′ Xho1 and 3′ Nco1 restriction enzyme sites, was supplied cloned in pMA-RQ. Plasmids for the transient LUC reporter assay: A synthetic promoter with 5×UAS GAL4 DNA binding sites upstream of a −105 bp CaMV35S promoter was cloned into the XhoI-NcoI sites within a dual luciferase construct pNWA62, which contains an intron-containing Firefly Luciferase gene (LUC) and 35Spro::Renilla Luciferase (REN) as an internal standard, to construct pAML7. […]

For a further assay, the target named is T2, BZR1 (Arabidopsis thaliana, UniProt Q8S307).
T2 construct: expressed in transfected cells; host or cells: yeast strain MaV203
T2 sequence (Q8S307 with tags, fused parts or gaps): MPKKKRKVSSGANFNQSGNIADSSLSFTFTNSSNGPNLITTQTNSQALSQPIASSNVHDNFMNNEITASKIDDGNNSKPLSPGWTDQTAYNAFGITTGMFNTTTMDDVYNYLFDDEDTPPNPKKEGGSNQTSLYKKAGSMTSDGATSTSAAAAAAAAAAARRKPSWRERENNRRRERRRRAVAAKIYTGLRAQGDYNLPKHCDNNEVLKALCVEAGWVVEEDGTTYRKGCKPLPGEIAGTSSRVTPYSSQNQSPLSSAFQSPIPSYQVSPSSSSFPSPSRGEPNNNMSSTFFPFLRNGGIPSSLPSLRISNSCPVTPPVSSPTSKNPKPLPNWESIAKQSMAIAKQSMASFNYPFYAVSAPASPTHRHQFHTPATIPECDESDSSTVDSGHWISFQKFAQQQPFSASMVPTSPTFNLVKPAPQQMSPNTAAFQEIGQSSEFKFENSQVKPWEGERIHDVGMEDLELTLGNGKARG
Put plainly: Yeast two hybrid (Y2H) interaction with BZR1. Type of assay: binding.
Description: as §1

B1: PPD1: PEAPOD 1 protein of Arabidopsis thaliana, SEQ ID NO: 1 (protein, listed as Arabidopsis thaliana)
chain: MDVGVSPAKSILAKPLKLLTEEDISQLTREDCRKFLKDKGMRRPSWNKSQAIQQVLSLKALYEPGDDSGAGIFRKILVSQPVNPPRVTTTLIEPSNELEACGRVSYPEDNGACHRMDSPRSAEFSGGSGHFVSEKDGHKTTISPRSPAETSELVGQMTIFYSGKVNVYDGIPPEKARSIMHFAANPIDLPENGIFASSRMISKLISKEKMMELPQKGLEKANSSRDSGMEGQANRKVSLQRYREKRKDRKFSKAKKCPGVASSSLEMFLNCQPRMKAAYSQNLGCTGSPLHSQSPESQTKSPNLSVDLNSEGI
In the case of B1, the “interaction with NINJA” value with NINJA is given as “direct interactor”. The “interaction with BZR1” value with BZR1 is given as “no direct interaction”.

(Values after patent US10487337B2, “Methods for monocot plant improvement” (Agresearch Limited, priority 2014, dated 2019).)
